Results reported in the Immune Epitope Database (IEDB).

Experiments:
HLA-A*02:16 = test: IEDB peptide-MHC binding, purified MHC/direct/fluorescence; filed as Kd, often an IC50 or EC50 that approximates it; ≥ and ≤ were set here for values at or beyond the usual limits of such assays; settings: source organism: Vibrio cholerae V52
HLA-A*02:01 = test: as above; settings: source organism: Vibrio cholerae V52
HLA-A*24:03 = test: as above; settings: source organism: Vibrio cholerae V52
HLA-A*29:02 = test: as above; settings: source organism: Vibrio cholerae V52
HLA-B*15:17 = test: as above; settings: source organism: Vibrio cholerae V52
HLA-A*03:01 = test: as above; settings: source organism: Vibrio cholerae V52
HLA-B*39:01 = test: as above; settings: source organism: Vibrio cholerae V52
HLA-A*02:12 = test: as above; settings: source organism: Vibrio cholerae V52
HLA-A*02:11 = test: as above; settings: source organism: Vibrio cholerae V52
HLA-A*23:01 = test: as above; settings: source organism: Vibrio cholerae V52
HLA-B*18:01 = test: as above; settings: source organism: Vibrio cholerae V52
HLA-B*27:03 = test: as above; settings: source organism: Vibrio cholerae V52
HLA-A*26:01 = test: as above; settings: source organism: Vibrio cholerae V52
HLA-B*57:01 = test: as above; settings: source organism: Vibrio cholerae V52
HLA-A*02:03 = test: as above; settings: source organism: Vibrio cholerae V52
HLA-A*02:19 = test: as above; settings: source organism: Vibrio cholerae V52
HLA-B*15:01 = test: as above; settings: source organism: Vibrio cholerae V52
HLA-A*68:02 = test: as above; settings: source organism: Vibrio cholerae V52
HLA-A*30:02 = test: IEDB peptide-MHC binding, purified MHC/competitive/fluorescence; filed as Kd, often an IC50 or EC50 that approximates it; ≥ and ≤ were set here for values at or beyond the usual limits of such assays; settings: source organism: Vibrio cholerae 2740-80
HLA-A*01:01 = test: as above; settings: source organism: Vibrio cholerae 2740-80
HLA-B*27:05 = test: as above; settings: source organism: Vibrio cholerae 2740-80
HLA-B*58:01 = test: as above; settings: source organism: Vibrio cholerae 2740-80
HLA-B*51:01 = test: as above; settings: source organism: Vibrio cholerae 2740-80
HLA-B*40:01 = test: as above; settings: source organism: Vibrio cholerae 2740-80
HLA-B*08:01 = test: as above; settings: source organism: Vibrio cholerae 2740-80

Measured: Kd

MGMEQTMSV
≥ 5 µM: HLA-A*30:02 | HLA-A*01:01 | HLA-B*27:05 | HLA-B*58:01 | HLA-B*51:01 | HLA-B*40:01 | HLA-B*08:01
≥ 20 µM: HLA-A*02:16 | HLA-A*02:01 | HLA-A*24:03 | HLA-A*29:02 | HLA-B*15:17 | HLA-A*03:01 | HLA-B*39:01 | HLA-A*02:12 | HLA-A*02:11 | HLA-A*23:01 | HLA-B*18:01 | HLA-B*27:03 | HLA-A*26:01 | HLA-B*57:01 | HLA-A*02:03 | HLA-A*02:19 | HLA-B*15:01
≤ 0.001 µM: HLA-A*68:02
